Paper PMC10954474, “https://orcid.org/0000-0002-6027-2265 Manakova Elena Institute of Biotechnology, Life Sciences Center, Vilnius University, Sauletekio av. 7, LT-10257, Vilnius, Lithuania”

Assays:
AfAgo = molecular target: T1, AfAgo (Archaeoglobus fulgidus DSM4304, UniProt O28951 1-427); assay: EMSA; 5 mM Mg2+; EMSA: 40 mM Tris-acetate, 1 mM EDTA, pH 8.4, 5 mM Mg(OAc)2, 0.1 mg/ml BSA, 1 mM DTT, 10% glycerol, room temperature (25 C), 1 h; conditions: protein: recombinant; label: 5'-32P; blunt
T1 sequence: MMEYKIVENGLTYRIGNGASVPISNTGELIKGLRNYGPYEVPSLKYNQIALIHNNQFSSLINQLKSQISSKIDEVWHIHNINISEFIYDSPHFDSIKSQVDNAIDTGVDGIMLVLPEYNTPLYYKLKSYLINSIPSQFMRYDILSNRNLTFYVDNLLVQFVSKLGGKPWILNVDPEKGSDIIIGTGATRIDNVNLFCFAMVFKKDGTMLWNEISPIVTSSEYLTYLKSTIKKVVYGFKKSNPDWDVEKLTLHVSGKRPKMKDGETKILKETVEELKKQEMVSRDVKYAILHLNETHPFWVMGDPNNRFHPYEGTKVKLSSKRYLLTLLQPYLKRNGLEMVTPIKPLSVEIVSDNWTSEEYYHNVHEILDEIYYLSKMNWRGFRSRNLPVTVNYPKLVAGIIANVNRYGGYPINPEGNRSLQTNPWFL

AfAgo;AfAgo-N [1] = molecular target: T2, AfAgo;AfAgo-N (Archaeoglobus fulgidus …, UniProt O28951;A0A075WKW4 1-427;1-250, |); assay: as above; conditions: protein: recombinant;recombinant, tags: ;His6-TEV (N-terminal), copies: 1;1, label: 5'-32P
AfAgo;AfAgo-N [2] = molecular target: T2, AfAgo;AfAgo-N; assay: X-ray crystallography; 2.5 A; 5 mM Mg2+; EMSA: 40 mM Tris-acetate, 1 mM EDTA, pH 8.4, 5 mM Mg(OAc)2, 0.1 mg/ml BSA, 1 mM DTT, 10% glycerol, room temperature (25 C), 1 h; conditions: protein: recombinant;recombinant; tags: ;His6-TEV (N-terminal); copies: 1;1; 2 strands partially annealed, 3 bp, in crystal
AfAgo;AfAgo-N [3] = molecular target: T2, AfAgo;AfAgo-N; assay: cryo-EM; 2.83 A; EMSA: 40 mM Tris-acetate, 1 mM EDTA, pH 8.4, 5 mM Mg(OAc)2, 0.1 mg/ml BSA, 1 mM DTT, 10% glycerol, room temperature (25 C), 1 h; conditions: protein: recombinant;recombinant; tags: ;His6-TEV (N-terminal); copies: 1;1; 30 nt guide on 51 nt target with target overhangs
AfAgo;AfAgo-N [4] = molecular target: T2, AfAgo;AfAgo-N; assay: SEC-SAXS; 5 mM Mg2+; SASDRX8; EMSA: 40 mM Tris-acetate, 1 mM EDTA, pH 8.4, 5 mM Mg(OAc)2, 0.1 mg/ml BSA, 1 mM DTT, 10% glycerol, room temperature (25 C), 1 h; conditions: protein: recombinant;recombinant; tags: ;His6-TEV (N-terminal); copies: 1;1; blunt, self-complementary
AfAgo;AfAgo-N [5] = molecular target: T2, AfAgo;AfAgo-N; assay: cryo-EM; 3.56 A; EMSA: 40 mM Tris-acetate, 1 mM EDTA, pH 8.4, 5 mM Mg(OAc)2, 0.1 mg/ml BSA, 1 mM DTT, 10% glycerol, room temperature (25 C), 1 h; conditions: protein: recombinant;recombinant; tags: ;His6-TEV (N-terminal); copies: 1;1; blunt
AfAgo;AfAgo-N [6] = molecular target: T2, AfAgo;AfAgo-N; assay: EMSA; preloaded guide, 5 mM Mg2+; EMSA: 40 mM Tris-acetate, 1 mM EDTA, pH 8.4, 5 mM Mg(OAc)2, 0.1 mg/ml BSA, 1 mM DTT, 10% glycerol, room temperature (25 C), 1 h; conditions: protein: recombinant;recombinant; tags: ;His6-TEV (N-terminal); copies: 1;1; label: 5'-32P target; g1-g8 complementary

B1: dsDNA MZ-1447/1455 (dsDNA)
DNA 1: ATTGTACACGGCCGAAT
DNA 2: ATTCGGCCGTGTACAAT
modifications: 5'-phosphate
Q: What does the source list for B1?
A: binding result (AfAgo): binds; binding result (AfAgo;AfAgo-N [1]; blunt): binds

B2: RNA/DNA MZ-1480/1455 (DNA:RNA)
RNA: AUUGUACACGGCCGAAU
DNA: ATTCGGCCGTGTACAAT
modifications: 5'-phosphate
Q: Does B2 bind (AfAgo)?
A: binds

Q: Does B2 bind (AfAgo;AfAgo-N [1]; blunt)?
A: binds

Q: Does ATCGACCAGGCTACG (ssDNA, 5'-phosphate) [GS-851] bind (AfAgo;AfAgo-N [2])?
A: binds

B3: g30/t51 MZ-1745/MZ-1747 (DNA:RNA)
RNA: AGGAGGGCGGAGCCUAUGGAAAAACGCCAC
DNA: GCCGCGCCGGTGGCGTTTTTCCATAGGCTCCGCCCTCCTGCCAGAGTTCGC
modifications: 5'-phosphate guide
Q: Does B3 bind (AfAgo;AfAgo-N [3])?
A: binds

Q: Does AUUGUACACGGCCGAAU (ssRNA) [ssRNA MZ-1480] bind (AfAgo;AfAgo-N [1]; single-stranded)?
A: binds

B4: MZ-1288 14 bp DNA (dsDNA)
DNA 1: ATTGTGGCCACAAT
DNA 2: ATTGTGGCCACAAT
modifications: 5'-phosphate
Q: Does B4 bind (AfAgo;AfAgo-N [4])?
A: binds

B5: g17/t17 MZ-1800/MZ-1455 (DNA:RNA)
RNA: AUUGUACACGGCCGAAU
DNA: ATTCGGCCGTGTACAAT
modifications: 5'-phosphate guide
Q: Does B5 bind (AfAgo;AfAgo-N [5])?
A: binds

B6: gRNA MZ-1480 / tDNA MZ-1560 (DNA:RNA)
RNA: AUUGUACACGGCCGAAU
DNA: CGGAATATATGTACAAT
modifications: 5'-phosphate guide
Q: Does B6 bind (AfAgo;AfAgo-N [6])?
A: binds

Q: Does ATTGTACACGGCCGAAT (ssDNA) [ssDNA MZ-1447] bind (AfAgo;AfAgo-N [1]; single-stranded)?
A: binds
